{"source": "patent US20130039933", "key": {"[1]": {"target": "A366 peptide (STING peptide substrate with alanine at 366)"}, "[2]": {"target": "S366 peptide (STING peptide substrate with serine 366)"}}, "data": [{"protein": "ULK2 (protein) MEVVGDFEYSKRDLVGHGAFAVVFRGRHRQKTDWEVAIKSINKKNLSKSQILLGKEIKILKELQHENIVALYDVQELPNSVFLVMEYCNGGDLADYLQAKGTLSEDTIRVFLHQIAAAMRILHSKGIIHRDLKPQNILLSYANRRKSSVSGIRIKIADFGFARYLHSNMMAATLCGSPMYMAPEVIMSQHYDAKADLWSIGTVIYQCLVGKPPFQANSPQDLRMFYEKNRSLMPSIPRETSPYLANLLLGLLQRNQKDRMDFEAFFSHPFLEQGPVKKSCPVPVPMYSGSVSGSSCGSSPSCRFASPPSLPDMQHIQEENLSSPPLGPPNYLQVSKDSASTSSKNSSCDTDDFVLVPHNISSDHSCDMPVGTAGRRASNEFLVCGGQCQPTVSPHSETAPIPVPTQIRNYQRIEQNLTSTASSGTNVHGSPRSAVVRRSNTSPMGFLRPGSCSPVPADTAQTVGRRLSTGSSRPYSPSPLVGTIPEQFSQCCCGHPQGHDSRSRNSSGSPVPQAQSPQSLLSGARLQSAPTLTDIYQNKQKLRKQHSDPVCPSHTGAGYSYSPQPSRPGSLGTSPTKHLGSSPRSSDWFFKTPLPTIIGSPTKTTAPFKIPKTQASSNLLALVTRHGPAEE", "values": [{"measurement": "Activity (cpm)", "setting": "[1]", "result": 7380, "unit": "cpm"}, {"measurement": "Activity (cpm)", "setting": "[2]", "result": 156000, "unit": "cpm"}, {"measurement": "Fold induction", "setting": "[2]", "result": 21.1, "unit": "fold"}]}, {"protein": "TBK1 (protein kinase of the kinase panel) (protein) MQSTSNHLWLLSDILGQGATANVFRGRHKKTGDLFAIKVFNNISFLRPVDVQMREFEVLKKLNHKNIVKLFAIEEETTTRHKVLIMEFCPCGSLYTVLEEPSNAYGLPESEFLIVLRDVVGGMNHLRENGIVHRDIKPGNIMRVIGEDGQSVYKLTDFGAARELEDDEQFVSLYGTEEYLHPDMYERAVLRKDHQKKYGATVDLWSIGVTFYHAATGSLPFRPFEGPRRNKEVMYKIITGKPSGAISGVQKAENGPIDWSGDMPVSCSLSRGLQVLLTPVLANILEADQEKCWGFDQFFAETSDILHRMVIHVFSLQQMTAHKIYIHSYNTATIFHELVYKQTKIISSNQELIYEGRRLVLEPGRLAQHFPKTTEENPIFVVSREPLNTIGLIYEKISLPKVHPRYDLDGDASMAKAITGVVCYACRIASTLLLYQELMRKGIRWLIELIKDDYNETVHKKTEVVITLDFCIRNIEKTVKVYEKLMKINLEAAELGEISDIHTKLLRLSSSQGTIETSLQDIDSRLSPGGSLADAWAHQEGTHPKDRNVEKLQVLLNCMTEIYYQFKKDKAERRLAYNEEQIHKFDKQKLYYHATKAMTHFTDECVKKYEAFLNKSEEWIRKMLHLRKQLLSLTNQCFDIEEEVSKYQEYTNELQETLPQKMFTASSGIKHTMTPIYPSSNTLVEMTLGMKKLKEEMEGVVKELAENNHILERFGSLTMDGGLRNVDCL", "values": [{"measurement": "Activity (cpm)", "setting": "[1]", "result": 6600, "unit": "cpm"}, {"measurement": "Activity (cpm)", "setting": "[2]", "result": 16700, "unit": "cpm"}, {"measurement": "Fold induction", "setting": "[2]", "result": 2.52, "unit": "fold"}]}, {"protein": "ULK1 (protein) MEPGRGGTETVGKFEFSRKDLIGHGAFAVVFKGRHREKHDLEVAVKCINKKNLAKSQTLLGKEIKILKELKHENIVALYDFQEMANSVYLVMEYCNGGDLADYLHAMRTLSEDTIRLFLQQIAGAMRLLHSKGIIHRDLKPQNILLSNPAGRRANPNSIRVKIADFGFARYLQSNMMAATLCGSPMYMAPEVIMSQHYDGKADLWSIGTIVYQCLTGKAPFQASSPQDLRLFYEKNKTLVPTIPRETSAPLRQLLLALLQRNHKDRMDFDEFFHHPFLDASPSVRKSPPVPVPSYPSSGSGSSSSSSSTSHLASPPSLGEMQQLQKTLASPADTAGFLHSSRDSGGSKDSSCDTDDFVMVPAQFPGDLVAEAPSAKPPPDSLMCSGSSLVASAGLESHGRTPSPSPPCSSSPSPSGRAGPFSSSRCGASVPIPVPTQVQNYQRIERNLQSPTQFQTPRSSAIRRSGSTSPLGFARASPSPPAHAEHGGVLARKMSLGGGRPYTPSPQVGTIPERPGWSGTPSPQGAEMRGGRSPRPGSSAPEHSPRTSGLGCRLHSAPNLSDLHVVRPKLPKPPTDPLGAVFSPPQASPPQPSHGLQSCRNLRGSPKLPDFLQRNPLPPILGSPTKAVPSFDFPKTPSSQNLLALLARQ", "values": [{"measurement": "Activity (cpm)", "setting": "[1]", "result": 12200, "unit": "cpm"}, {"measurement": "Activity (cpm)", "setting": "[2]", "result": 209000, "unit": "cpm"}, {"measurement": "Fold induction", "setting": "[2]", "result": 17.1, "unit": "fold"}]}, {"protein": "GRK7 (protein) MVDMGALDNLIANTAYLQARKPSDCDSKELQRRRRSLALPGLQGCAELRQKLSLNFHSLCEQQPIGRRLFRDFLATVPTFRKAATFLEDVQNWELAEEGPTKDSALQGLVATCASAPAPGNPQPFLSQAVATKCQAATTEEERVAAVTLAKAEAMAFLQEQPFKDFVTSAFYDKFLQWKLFEMQPVSDKYFTEFRVLGKGGFGEVCAVQVKNTGKMYACKKLDKKRLKKKGGEKMALLEKEILEKVSSPFIVSLAYAFESKTHLCLVMSLMNGGDLKFHIYNVGTRGLDMSRVIFYSAQIACGMLHLHELGIVYRDMKPENVLLDDLGNCRLSDLGLAVEMKGGKPITQRAGTNGYMAPEILMEKVSYSYPVDWFAMGCSIYEMVAGRTPFKDYKEKVSKEDLKQRTLQDEVKFQHDNFTEEAKDICRLFLAKKPEQRLGSREKSDDPRKHHFFKTINFPRLEAGLIEPPFVPDPSVVYAKDIAEIDDFSEVRGVEFDDKDKQFFKNFATGAVPIAWQEEIIETGLFEELNDPNRPTGCEEGNSSKSGVCLLL", "values": [{"measurement": "Activity (cpm)", "setting": "[1]", "result": 7260, "unit": "cpm"}, {"measurement": "Activity (cpm)", "setting": "[2]", "result": 13100, "unit": "cpm"}, {"measurement": "Fold induction", "setting": "[2]", "result": 1.81, "unit": "fold"}]}]}
